Reference: paper PMC10178974

How the values were obtained:
Assay in all cases: BLI
[1] = test system: Influenza A virus virions (hemagglutinin is the stated target of RHA0385) (Influenza A virus H7N1); settings: BLI: PBS pH 7.4 ([…]; temperature not stated
[2] = test system: Respiratory syncytial virus virions (surface protein not named) (Respiratory syncytial virus A2); settings: BLI: PBS pH 7.4 (8 mM Na2HPO4, 1.5 mM KH2PO4, 140 mM NaCl, 10 mM KCl), 0.01% Tween-20, 0.1 mg/mL BSA; biotin-aptamer on streptavidin sensor; virus as analyte …
[3] = target: SARS-CoV-2 virions (S protein RBD is the stated target of RBD-1C) (SARS-CoV-2) (UniProt P0DTC2); settings: BLI: PBS pH 7.4 ([…]; temperature not stated
[4] = test system: Adenovirus type 5 virions (surface protein not named) (Human adenovirus 5?); settings: BLI: PBS pH 7.4 (8 mM Na2HPO4, 1.5 mM KH2PO4, 140 mM NaCl, 10 mM KCl), 0.01% Tween-20, 0.1 mg/mL BSA; biotin-aptamer on streptavidin sensor; virus as analyte …

For “AGTGCGGTGAGCCGTCGGACATACAAATAC [Biotin-H8]”, the Kd [1] was 3.5 pM and the Kd [2] was 0.031 pM.
With “CAGCACCGACCTTGTGCTTTGGGAGTGCTGGTCCAAGGGCGTTAATGGACA [Biotin-RBD-1C]” the Kd [3] was 0.071 pM.
“GTGCCAGCTATGCCATTGGCGGGTCGTCCAATTCGAGAGGTCCCCTAGCGTCTATCTCTGCTGC [Biotin-ADV-20]” showed a Kd [1] of 2.6 pM, a Kd [3] of 50 pM and a Kd [2] of 0.38 pM. For the same sequence, the Kd [4] was 0.011 pM.
Work on “TTGGGGTTATTTTGGGAGGGCGGGGGTT [Biotin-RHA0386 (RHA0385 in text)]” yielded a Kd [1] of 0.021 pM.
